The record followed here is the supplement of paper PMC10724198.

± gives the standard deviation of the averaged measurements.
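Also: PSI is a weighted mean of sequencing reads over stability bins, variants kept only with over 10 reads, mCherry proximal and sfGFP distal, peptide attached via GGGS linker.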

This data set has as its system Saccharomyces cerevisiae. As to the kind of experiment: protein stability index of tFT-peptide fusion (C-terminal peptide) (PSI (0-1 scale)); higher = more stable (slower turnover). The note with it: genetic background: wild type; temperature: 30 C.
For PSRPSPSPHLPL, the protein stability index is 0.849 ± 0.011.

PSSLRLPLCSPL had a protein stability index of 0.7039 ± 0.004. To PSSLSSLPPPSP belongs 0.669 ± 0.024; to PSSPALIPCRLV, 0.61 ± 0.027. The sequence PSSPLSPAPPPP showed a protein stability index of 0.659 ± 0.015. In the case of PSTLLTFAISIP it was 0.666 ± 0.045; in that of PSTPLPHLTRPS, 0.677 ± 0.07; in that of PSVPRLPGLSLR, 0.629 ± 0.053. In the case of PTAPVLRPPASP it was 0.7 ± 0.011.

As to PTARIPGLYLFP, the protein stability index stood at 0.695 ± 0.049. In the case of PTHDPPSLHSPA it was 0.604 ± 0.027; in that of PTITPPPPPPPP, 0.625 ± 0.0067.

PTKSQNEKTKAE registered a protein stability index of 0.679 ± 0.037. PTLDATLSVASG: the protein stability index was 0.667 ± 0.036. In the case of PTLIPPPPPPGP it was 0.718 ± 0.059.

Consider PTLLRRVPPVPL, for which the protein stability index is 0.677 ± 0.087. To PTLPPHSLRPPP belongs 0.692 ± 0.018. PTPAPLPPPSPP displayed a protein stability index of 0.592 ± 0.024. For the sequence PTPIPLGLHSLS, the protein stability index came out at 0.705 ± 0.048. With PTPLPPPPPRPD, the protein stability index is 0.715 ± 0.063.

With PTPLPPRSPPPQ, the protein stability index came out at 0.754 ± 0.045. For PTPPLPYRPRSP, the protein stability index came to 0.674 ± 0.014. To PTPRGTPCPDTM belongs 0.66 ± 0.065; to PTPTTNPTHSAP, 0.695 ± 0.048; to PTPTTSPASRQN, 0.682 ± 0.023.

The sequence PTREGSDGMVGN showed a protein stability index of 0.702 ± 0.021. To PTRRFVFCDVDK belongs 0.717 ± 0.077; to PTRSEGYSVVYM, 0.693 ± 0.043; to PTSPHPPPCSPP, 0.724 ± 0.22. In the case of PTTPPTILLLPL it was 0.658 ± 0.031. In the case of PTTVSRPPPPSP it was 0.711 ± 0.009; in that of PTVLFQFSESWP, 0.668 ± 0.044. Turning to PTYDSLPLLDNC, the protein stability index came to 0.673 ± 0.014. In the case of PTYRGAPCLPPF it was 0.728 ± 0.013; in that of PVFLEFESWCVC, 0.685 ± 0.044. To PVFLSCCLCLLS belongs 0.78 ± 0.099; to PVICFTSYPDRQ, 0.7 ± 0.098. In the case of PVLPLPSLPSPS it was 0.675 ± 0.0093; in that of PVLRLPHDETAN, 0.705 ± 0.035. The sequence PVLYWHSYRLCR yielded a protein stability index of 0.65 ± 0.008. In the case of PVPLLHPRSLSL it was 0.781 ± 0.074.

The sequence PVSCMAWGRLVL had a protein stability index of 0.667 ± 0.041. The sequence PVSPLFWSAKRL displayed a protein stability index of 0.71061 ± 0.00011. For the sequence PVSPSIHPPSYP, the protein stability index came out at 0.759 ± 0.023. To PVSSLPQTLLMF belongs 0.758 ± 0.22; to PVVGNPHRIFGV, 0.714 ± 0.028. In the case of PVVKGAAGSAQR it was 0.725 ± 0.074; in that of PWDPDTPIPPRP, 0.716 ± 0.012; in that of PWRLFVTSGSPA, 0.714 ± 0.048. To PWVGRFVRLGVR belongs 0.676 ± 0.058.

Consider PYIPSSVSLRQD, for which the protein stability index was found to be 0.712 ± 0.0092. In the case of PYPNAQRIEIKF it was 0.651 ± 0.026; in that of PYRFRDRTYEEL, 0.673 ± 0.022; in that of PYSSVPLAPPRP, 0.736 ± 0.043. As to QAGKPAIHHAAL, the protein stability index was 0.682 ± 0.0034. In the case of QAVTSVGTTNIV it was 0.689 ± 0.023. QCAIRQCCLVSL displayed a protein stability index of 0.574 ± 0.064.

Sequence QCGAWLKFTCHV gave a protein stability index of 0.636 ± 0.058. In turn, QCRSLVGGCCVW returned a protein stability index of 0.693 ± 0.031. QCSVFSSPPRAL came in with a protein stability index of 0.723 ± 0.1. In the case of QCVSGLGPVVRT it was 0.7329 ± 0.0029; in that of QDERPLAPRTRW, 0.7251 ± 0.0032; in that of QDLIVENGSVSG, 0.655 ± 0.009. In the case of QESPERRGVPPF it was 0.674 ± 0.047.
